{"source": "patent US20240116985A1", "about": "(published 2024)", "binders": {"B1": {"name": "I-629 (peptide)", "peptide": "Ac-[αAllylPro]DL[B5(16)]DEAAF[Cit][S8]F[Bta]-NH2", "modifications": "staple 1-4, 4-11; not fully specified; printed as Ac-PL3-Asp-Leu-B5-Asp-Glu-Ala-Ala-Phe-Cit-S8-Phe-BztA-NH2"}}, "key": {"[1]": {"target": "T1, B-cat-Halo (beta-catenin HaloTag fusion expressed in HEK293 cells) (UniProt P35222 1-781)", "T1 sequence (looked up)": "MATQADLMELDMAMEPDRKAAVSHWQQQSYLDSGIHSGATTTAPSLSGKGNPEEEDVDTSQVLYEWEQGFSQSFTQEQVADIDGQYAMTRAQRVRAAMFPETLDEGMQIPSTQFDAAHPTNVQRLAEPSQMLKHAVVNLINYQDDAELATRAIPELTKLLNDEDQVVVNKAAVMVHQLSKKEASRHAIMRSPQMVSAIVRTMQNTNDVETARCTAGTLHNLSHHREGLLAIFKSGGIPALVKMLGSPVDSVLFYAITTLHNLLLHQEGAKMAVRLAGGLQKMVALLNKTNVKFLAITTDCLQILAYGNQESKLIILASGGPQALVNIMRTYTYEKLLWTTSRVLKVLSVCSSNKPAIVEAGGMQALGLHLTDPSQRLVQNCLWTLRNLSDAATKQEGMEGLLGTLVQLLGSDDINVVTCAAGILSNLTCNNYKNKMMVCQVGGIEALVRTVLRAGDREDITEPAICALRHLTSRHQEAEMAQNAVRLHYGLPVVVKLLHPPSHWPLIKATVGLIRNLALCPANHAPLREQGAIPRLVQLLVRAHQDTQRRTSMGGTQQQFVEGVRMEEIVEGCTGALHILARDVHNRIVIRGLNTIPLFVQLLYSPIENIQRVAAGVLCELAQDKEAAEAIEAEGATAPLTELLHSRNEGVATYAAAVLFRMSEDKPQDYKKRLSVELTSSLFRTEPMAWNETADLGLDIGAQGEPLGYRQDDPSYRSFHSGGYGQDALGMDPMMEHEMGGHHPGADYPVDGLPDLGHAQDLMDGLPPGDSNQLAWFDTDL", "experiment": "cell-based or functional assay"}, "[2]": {"target": "B-cat-Halo (UniProt P35222 1-781)", "experiment": "cell-based or functional assay"}, "[3]": {"target": "T2, beta-catenin in DLD1 TCF/LEF luciferase reporter cells (UniProt P35222 1-781)", "T2 sequence (looked up)": "T1 sequence (looked up)", "experiment": "cell-based or functional assay"}, "[4]": {"target": "T3, full-length beta-Catenin (Uniprot ID P35222) (Homo sapiens (Human), UniProt P35222 1-781)", "T3 construct": "The assay text says 'full-length'; also called bCat; B-Catenin", "T3 sequence": "T1 sequence (looked up)", "experiment": "fluorescence polarization competition; peptide titrated against 10 nM full-length beta-catenin + 10 nM 5FAM-TCF4(10-53) probe", "procedure": "(§1) The plate was incubated protected from light for 60 minutes at 20° C. prior to read. Reads were performed on a CLARIOstar plate reader (BMG Labtech) in duplicate, and data were fitted to a 1:1 binding model with hill slope using an in-house script. All provided concentrations are final concentrations."}, "[5]": {"target": "T4, B-cat-Halo (UniProt P35222 1-781)", "T4 sequence (looked up)": "T1 sequence (looked up)", "experiment": "cell-based or functional assay", "remark": "listed apart in the source"}, "[6]": {"target": "T5, B-cat-Halo (beta-catenin HaloTag NanoBRET construct expressed in HEK293 cells) (UniProt P35222 1-781)", "T5 sequence (looked up)": "T1 sequence (looked up)", "experiment": "cell-based or functional assay"}, "[7]": {"target": "T6, full-length beta-Catenin (Uniprot ID P35222) (Homo sapiens (Human), UniProt P35222 1-781)", "T6 construct": "also called bCat; B-Catenin", "T6 sequence": "T1 sequence (looked up)", "experiment": "FP competition: full-length beta-catenin 10 nM + 5FAM-TCF4(10-53) 10 nM", "procedure": "as §1"}, "[8]": {"target": "T7, beta-catenin in DLD1 TCF/LEF luciferase reporter cells (UniProt P35222 1-781)", "T7 sequence (looked up)": "T1 sequence (looked up)", "experiment": "cell-based or functional assay", "remark": "listed apart in the source"}, "[9]": {"target": "T8, B-cat-Halo (NanoBRET construct expressed in HEK293 cells) (UniProt P35222 1-781)", "T8 sequence (looked up)": "T1 sequence (looked up)", "experiment": "cell-based or functional assay"}, "[10]": {"target": "T9, B-cat-Halo (beta-catenin HaloTag fusion expressed in HEK293 cells) (UniProt P35222 1-781)", "T9 sequence (looked up)": "T1 sequence (looked up)", "experiment": "cell-based or functional assay", "remark": "listed apart in the source"}, "[11]": {"target": "T10, B-cat-Halo (UniProt P35222 1-781)", "T10 sequence (looked up)": "T1 sequence (looked up)", "experiment": "cell-based or functional assay", "remark": "listed apart in the source"}, "[12]": {"target": "T11, B-cat-Halo (beta-catenin HaloTag NanoBRET construct expressed in HEK293 cells) (UniProt P35222 1-781)", "T11 sequence (looked up)": "T1 sequence (looked up)", "experiment": "cell-based or functional assay", "remark": "listed apart in the source"}, "[13]": {"target": "T12, beta-catenin (in DLD1 TCF/LEF luciferase reporter cells) (UniProt P35222 1-781)", "T12 sequence (looked up)": "T1 sequence (looked up)", "experiment": "cell-based or functional assay"}, "[14]": {"target": "T13, B-cat-Halo (NanoBRET construct expressed in HEK293 cells) (UniProt P35222 1-781, HaloTag NanoBRET 618 Ligand bound in the assay)", "T13 sequence (looked up)": "T1 sequence (looked up)", "experiment": "cell-based or functional assay"}}, "note": "Starred links: 1 amine or outer side, 2 acyl side, 3 side chain; linkers in the order of their positions; H or OH if unused. Positions of bridges follow the written chain, without caps; N, C: chain ends. Non-standard residues stand in square brackets, D forms with d. Primed or numbered codes have the meaning given here. PyrS2(3) = (S)-3-amino-1-((pent-4-en-1-yloxy)carbonyl)pyrrolidine-3-carboxylic acid, stapling residue, C=CCCCOC(=O)N1CC[C@@](N[*:1])(C(=O)[*:2])C1; PyrS2″ = (S)-3-amino-1-((pent-4-en-1-yloxy)carbonyl)pyrrolidine-3-carboxylic acid (stapling residue), C=CCCCOC(=O)N1CC[C@@](N[*:1])(C(=O)[*:2])C1; B5(16) = 2-amino-2-(pent-4-en-1-yl)hept-6-enoic acid = 2,2-bis(4-pentenyl)glycine (stitching residue), C=CCCCC(CCCC=C)(N[*:1])C(=O)[*:2]; B5(24) = 2-amino-2-(pent-4-en-1-yl)hept-6-enoic acid, 2,2-bis(4-pentenyl)glycine (stitching residue), C=CCCCC(CCCC=C)(N[*:1])C(=O)[*:2]; B5(5) = 2,2-bis(4-pentenyl)glycine, 2-amino-2-(pent-4-en-1-yl)hept-6-enoic acid (stitching residue), C=CCCCC(CCCC=C)(N[*:1])C(=O)[*:2]; B5(21) = 2-amino-2-(pent-4-en-1-yl)hept-6-enoic acid, bis(4-pentenyl)glycine (stitching residue), C=CCCCC(CCCC=C)(N[*:1])C(=O)[*:2]; B5(6) = 2-amino-2-(pent-4-en-1-yl)hept-6-enoic acid (bis(4-pentenyl)glycine), stitching residue, C=CCCCC(CCCC=C)(N[*:1])C(=O)[*:2]; TfeGA = (S)-2-amino-3-((carboxymethyl)(2,2,2-trifluoroethyl)amino)propanoic acid, O=C([C@H](CN(CC(=O)[*:3])CC(F)(F)F)N[*:1])[*:2]; B5(3) = 2,2-bis(4-pentenyl)glycine (stitching residue), C=CCCCC(CCCC=C)(N[*:1])C(=O)[*:2]; B5″ = 2,2-bis(4-pentenyl)glycine, stitching residue, C=CCCCC(CCCC=C)(N[*:1])C(=O)[*:2]; Phe(2-OMe) = COc1ccccc1C[C@H](N)C(=O)O; Bta = N[C@@H](Cc1csc2ccccc12)C(=O)O; αAllylPro = C=CC[C@@]1(C(=O)O)CCCN1; tBuAla = CC(C)(C)C[C@H](N)C(=O)O; 3Thi = N[C@@H](Cc1ccsc1)C(=O)O; Cha = N[C@@H](CC1CCCCC1)C(=O)O; Cit = NC(=O)NCCC[C@H](N)C(=O)O; S8 = C=CCCCCCC[C@](C)(N)C(=O)O"}
{"binder": "Ac-[αAllylPro]D[Cha][B5(16)]DEAAFN[S8]F[Bta]Q-NH2 (staple 1-4, 4-11; also: later-eluting staple isomer composition)", "note": "[I-620, listing 1 of 2 here]", "values": [{"measurement": "NanoBRET IC50", "setting": "[1]", "value": 5.8, "unit": "µM"}]}
{"binder": "Ac-[αAllylPro]D[tBuAla][B5(5)]DDAAFN[S8][3Thi][Bta]Q-NH2 (staple 1-4, 4-11)", "note": "[I-679]", "values": [{"measurement": "NanoBRET % inh @ 10 uM", "setting": "[2]", "value": 44.8, "unit": "%"}]}
{"binder": "Ac-[αAllylPro]D[tBuAla][B5(3)]DDAAFF[PyrS2″][3Thi][Bta]Q-NH2 (staple 1-4, 4-11)", "note": "[I-807]", "values": [{"measurement": "DLD1 reporter assay Abs IC50", "setting": "[3]", "value": 3.4, "unit": "µM"}]}
{"binder": "Ac-[αAllylPro]DA[B5(24)]DEAAFN[S8][Phe(2-OMe)][Bta]Q-NH2 (staple 1-4, 4-11, Stapled peptide composition)", "note": "[I-437]", "values": [{"measurement": "IC50", "setting": "[4]", "value": 0.026, "unit": "µM"}, {"measurement": "NanoBRET Abs IC50", "setting": "[5]", "value": 17.5, "unit": "µM"}]}
{"binder": "Ac-[αAllylPro]DA[B5(21)]DEAAFN[PyrS2″]F[Bta]Q-NH2 (staple 1-4, 4-11)", "note": "[I-462]", "values": [{"measurement": "NanoBRET Abs IC50", "setting": "[6]", "value": "> 20", "unit": "µM"}]}
{"binder": "Ac-[αAllylPro]DL[B5(6)]DEAAFQ[S8]F[Bta]Q-NH2 (staple 1-4, 4-11, Stapled peptide composition)", "note": "[I-505]", "values": [{"measurement": "IC50", "setting": "[7]", "value": 0.023, "unit": "µM"}, {"measurement": "DLD1 4% Abs IC50", "setting": "[8]", "value": 9.4, "unit": "µM"}, {"measurement": "NanoBRET Abs IC50", "setting": "[9]", "value": 4.9, "unit": "µM"}]}
{"binder": "Ac-[αAllylPro]D[Cha][B5(16)]DEAAFN[S8]F[Bta]Q-NH2 (staple 1-4, 4-11; also: later-eluting staple isomer composition)", "note": "[I-620, listing 2 of 2 here]", "values": [{"measurement": "NanoBRET Abs IC50", "setting": "[10]", "value": 12, "unit": "µM"}]}
{"binder": "B1", "values": [{"measurement": "NanoBRET Abs IC50", "setting": "[11]", "value": 30, "unit": "µM"}]}
{"binder": "Ac-[αAllylPro]D[tBuAla][B5(5)]D[TfeGA]AAFN[S8]F[Bta]Q-NH2 (staple 1-4, 4-11)", "note": "[I-703]", "values": [{"measurement": "NanoBRET Abs IC50", "setting": "[12]", "value": 11.9, "unit": "µM"}]}
{"binder": "Ac-[αAllylPro]D[tBuAla][B5″]D[TfeGA]AAFN[PyrS2(3)][3Thi][Bta]Q-NH2 (staple 1-4, 4-11)", "note": "[I-762]", "values": [{"measurement": "DLD1 4% Abs IC50", "setting": "[13]", "value": 7.9, "unit": "µM"}, {"measurement": "NanoBRET Abs IC50", "setting": "[14]", "value": 14, "unit": "µM"}]}
